Test results from the nanobody polyreactivity screen of Harvey et al. (2022).

Test: yeast display, Sf9 membrane polyspecificity reagent, FACS + sequencing; frameworks hold sequencing errors
Method in brief: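 Polyreactivity labels are assigned by the sorting gate from which each nanobody was recovered. The gates were low and high (top ~1%), set on anti-HA fluorescence for expression and streptavidin fluorescence for reagent binding. Before sorting, galactose-induced (36–48 hours) yeast display cells were stained for 1 hour at 4 °C with 10% biotinylated, detergent-solubilized Sf9 membrane reagent.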

Row | Sequence | polyreactivity (PSR sort gate)
1 | QVQLVESGGGLVQAGGSLRLSCAASGSTFDPNAMGWYRHAPGKERELVAAIDSGGSSYYADSVKGRFTISRDNAKYTVYLQMNSLKPEDTAVYYCASNIVGRSPYDSNYDFEYWGQGTQVTVSS | low polyreactivity
2 | QVQLVESGGGLVQAGAILRLICAASGRIFYRYAMGWYRQAPGKERELVAAISSGGGRTYYADSVKGRFTLSRDNAKNTVYLQMNSLKPEDTAVYYCAASGNSYEQTGGYWGQGTQVTVSS | high polyreactivity
3 | QVQLVESGGGLDQAGGSLRLSCAASGFTSYENAMGSYRQAPGKERELVAAITWDGGSTYYADSVKGRFTISRDNAKNTVYFQMNSLKPEDTAVYYCAARQVVYYAYTFDYWGQGTQVTVSS | low polyreactivity
4 | QVQLGESGGGLLPAGGSLGLSCAASGSTFGYYAMGWDRQAPGKERELVAAINSGDSTSYADSVKGRFTISRDNAKTTLYLQMNSMKPEDTAVYYCAVRPRRHQYGYWGQGTQVTLSS | low polyreactivity
5 | QVQLVESGGGLVQAGGSLRLSCAASGRTFSVYAMGWYRQAPGKERELVAAIRTSGGITYYADSVKGRFTISRDNAKNTVYLQMNSLKPEDTAVYYCAAETFRPYSYTRYYYWGQGSQVTVSS | high polyreactivity
6 | QVQLVESGGGLFQAGGSLRLSCAASGFIFQYYDMGWYRQAPGKERELVAAINYSGGNTYYADSVKGRFTISRDNAKNTVYLQLNILKPEDSEVFYCAAAPSVSCTRLYEYWGQGTQVTVSS | high polyreactivity
7 | QVQLVESGGGLVQAGGSLRLSCAASGFTFHRNAMGWYRQAPGKERELVAAISTRGGSTAYADSVKGRFTISRDNAKNTVYLQMNSLKPEDTAVYYCNTRYVGQRSTWVDQVRRYDYWGQGTQVTVSS | high polyreactivity
8 | QVQLVESGGGLVQAGGSLRLSCAASGRTLDKYTLGWYRQAPGKERELVASITSGGSTNYADSVKGRFTISRDNAKNTVYLQMNTLKPEDTAVYYCNKRRRVSKMGQGYDYWGQGTQVTVTS | low polyreactivity
9 | QVQLVESGGGIVQAGGSLRLSCAASGLTFVNYAMGSYRQAPGKERELVAAITVNGGRTYYADSVKGRFTISRDNAKNTVYLQMFSLKPEDTAVYFCAAVYYRHGYTYSSDYWGQGTQVTVSS | high polyreactivity
10 | QVQLVESGGGLVQAGGSLRLSCAASGIIFYRNAMGWYRQAPGKERELVAAISKGGGSTYYADSVKGRFTISRDNAKNTVYLQMNSLKPEDTAVYYCAAKAYTYYARIGFDYWGQGTQVTVSS | high polyreactivity
11 | QVQLVESGGGLVQAGGSLRLSCAASGITFDDYAMGWYRQAPGKERELVAAISESGDSTYYADSVKGRFTISRDNAKNTVYFQMNSLKPEDTAVYYCAADSTYYYGWGMYYWGQGTQVTVSS | high polyreactivity
12 | QGQLVESGGGLVHAGGRLRLSCAASGSTFTTYAMGWYRQAPGTERELVAAISTNGGRTFYADSVKGRFTISRDNAKTTFYLQMNSLKTEDTAVYYCAAQYGLYAPGYYYWGHGTQVTVSS | low polyreactivity
13 | QVQLVESGGGLVQAGGSLRLSCAASGRTFKYNAMGWYRQAPGKERELVAVIRYSGGTTYYADSVKGRFTISRDNAKNTVYLQMNSLKPEDTAVYYCARGFTYQYSSFYYWGQGTQVTVSS | low polyreactivity
14 | QVHLVESGGGLVQAGGSLRLSCAASGSIFPYYVMGWYRQAPGKERELVAAISSGGNTYYADSVKGRFTISRDNAKNTVYLQMNSLKPEDTAVYYCNADKSYFVLLFGGYDYWGQGTQVTVSS | high polyreactivity
15 | QVQHVESVGGLVQAGGSLRLSCAASGSTFARYVMGWYRQAPGKEWELVAVISRSGGSTYYADSVKGRFTISRDNAKNTVYLQMNSLKPEDTAVYYCNARSSNYWWYYYWGQGTQVTVSS | high polyreactivity
16 | QVQLVESGGGLVQAGGSLRLSCAASGIILPYYVMGWYRQAPGKERELVAAISSGGRTYYADSVKGRFTISRDNAKNTVYLQMNSLKPEDTAVYYCNAYFTGKWYDYWGQGTQVTVSS | high polyreactivity
17 | QVQLEESGGGLVQAGGTLRLSCAASGSIFYGYAMGWYRKATGKQRDLVAVITDGGGSTYYADSVKGRFTISRDNAKNTVYLQMNSLKPEDTAVYYCAADSWGRYYYSSYSYDYWGQGTQVTVSS | low polyreactivity
18 | QVQLVESGVGLVQAGGSLRLSCAASGFTFAFYAMGWYRQAPGKERELVAAISRRGGSTTYADSVKGRFTISRDNAKYTVYLQMNSLKPEDTAVYYCNAVSTRNPGPDYYYWGQGTQVTVSS | high polyreactivity
19 | QVQLVESGGGLVQAGGSLRLSCAASGSNFTANAMGLYRQAPGKEREMVADISTGGSTKYADSVKGRFTISRDNAKNTVYLEMNSLKPEDTAVYYCAARSRWARGSAIRGFWGQGTQVTVSS | high polyreactivity
20 | QDQLVESGGGLVQAGGTLRLSCAASGRTFYLYAMAWYRQAPGKERELVAAISSGASTYYADSVKGSFTISRDIAKNTVYLQMNSLKPDDTAVYYCAAEFCPQWSGYEYWGQGTLVTVSS | high polyreactivity
21 | QVQLVESGGGLVQAGGSLRLSCAASGRIFSYYAMGWYRQAPGKERELVASISRGSSTYYADSVKGRFTISRDNAKNTVYLQMNSLKPEDTAVYYCARQWLGYPYTTYTGSPVEGYGYWGQGTQVTVSS | high polyreactivity
22 | QVQLVESGGGLFQAGGRLRLSCAASGSTFGYNAMGWYREAPGKERELVAAISYSSGSTYYADSVKGRFTISRDNAKNTVYLQMNSLKPEDTAVYYCAVVSRASRRGGRYDYWGQGTQVTVSS | high polyreactivity

Row | Sequence | polyreactivity (PSR sort gate)
23 | QVQLVESGGGLVQAGGSLRLSCAASGSTLWGYVMGWYRQAPGKERELVAVISKSGGSTYYADSVKGRFTISRDNANNTVYLQMNSLKPEDTAVYYCATRWPYRSDWGQGTQVTVSS | high polyreactivity
24 | QVQLVESGGGLVQAGGSLRLSCAASGFIFYPYAMAWYRQAPGKERELVAVITSGGRTYYADSVKGRFTISRDNAKNTVYLQMNSLKPEDTAVYYCAARYGRIHWKANWPEYGYWGQGTQVTVSS | low polyreactivity
25 | QVQLVESGGGLVQAGGSLRLSCAASGSTFRPYAMGWYRPAPGKEREFVASISNTGGSTSYADSVKGRFTISRDNAMNTVYFQMNSLKPEDTAVYYCAARFGYRPWYRMDYWGQGTQVAVSS | high polyreactivity
26 | QVQLVESGGGLGQAGGSLRLSCAASGRIFPKYVMGWYRQAPGKERELVAAIDKSADRTYYADSVKGRFTISRDNAKNTVYLQMNSLKPEDTAVYYCATAGYRLLDYWGQGTQVTVSS | high polyreactivity
27 | QVQLVESGGGLVQAGGSLRLSCAASGFTIAQNVMGWYRQAPGKERELVAAISVSGGSTYYADSVKGRFTISRDNAKNTVYLQMNSLKPEDTAVYYCNAVAGVTKRVDLSRSGYWGLGTQVTVSS | high polyreactivity
28 | QVQLVESGGGLVQAGGSLRLSCAASGSTFPVNAMGWYRQAPGKERELVAAISSRGSSTYYADSVKGRFTISRDNAKNTVYLQMNSLKPEDTAVYYCAAPQRYPRFYYWGQGTQVTVSS | high polyreactivity
29 | QVQLVESVGGLVQAGGSLRLSCAASGRIFTLYAMGWYRQAPGKERELVAAISWSGGSTYYADSVKGRFTISRDNAKNTVYLQMNSLKPEDTAVYYCAATWYRYYSIPRYDSWGQATQVTVSS | high polyreactivity
30 | QVQLVESGGGLVQAGGSLRLSCAASGLIFSRYTMGWYRQAPGKERELVAAISKTGSSTYYADSVKGRFTISRDNAKNTVYLQMNSLKPEDTAVYYCAAETGTGETRYYRYWDYYYWGQGTQVTVSS | high polyreactivity
31 | QVQLVESGGGLVQAGGSLRLSCAASGSTFYRYAMGGYRPAPGKEREFVAAISGSGGSTRYADSVKGRFTISRDNAKNTVYLQMNSLKPEDTAVYYCAARSRYGYITFDYWGQGTQVTVSS | high polyreactivity
32 | QVQLVESGGGLVQAGGSLRLSCAASGSIFWYYAMGWYRQAPGKERELVAAITGSGVRTYYADSVKGRFTISRDNAKNTVYLQMNSLKPEDTAVYYCNAVSSHSFYFYGDHNYWGQGTQVTVSS | low polyreactivity
33 | QVQLVESGGGLVQAGGSLRLSCAASGRTFRYNAMVWFRQAPGKERELVAAISSGDRTNYADSVKGRFTISRDNAKNTVYLQMNSLKPEDTAVYYCAAPTDSYYEFDYWGQGTQVTVSS | low polyreactivity
34 | QVQLVESGGGLVQAGGSLRLSCAASGRTFSSNAMGWYRQAPGKERELVASISFRGGRTYYADSVKGRFTISRDNAKNTVYLQMNSLKPVDTAVYYCATAYYYFSPSRADGEYWGQGTQVTVSS | high polyreactivity
35 | QVQLVESGGGLVQAGGSLRLSCAASGFIFYPYAMGWYRQAPGKERELVAAITWSGSRTYYADSVKGRFTISRDNAKHTVYLQMNSLKPEDTAVYYCNKYPQPTAYDYWGQGTQVTVSS | high polyreactivity
36 | QVQLVESGGGLVQAGGSLRLSCAASGRTFWYNAMGWYRQAPGKERELVATINSVGSTNYADSVKGRFTISRDNAKNTVYLQMNSLKPEDTAVYDCNAGYGYVRGRKGGAIVKYYYWGQGTQVTVSS | high polyreactivity
37 | QDQLVESGGGLVQAGGSLRLSCAASGRTFGRYAMGWYRQAPGKERELVASISYSTDSTYYADSVKGRFTISRDNAKNTVYLQMNSLKPEDTAVYYCATDSVNVGSYVGDKHDYWGQGTQVTVSS | low polyreactivity
38 | QVQLVESGGGLVQAGGSLRLSCAASGFTFAKNAMGWYRQAPGKERELVATISRSGGSTYYADSVKGRFTISRDNAKNTVYLQMNSLKPEDTAVYYCAADRSYGVLGNEGGYWGQGTQVTVSS | high polyreactivity
39 | QVQLVESGGCLFQAGGSLRLSCAASGFNFPYYAMGWYRQAPGKERELVAAINRGGSTYYADSEKGRFTISRDNAKNTVYLQMNSLKPEDTAVFYCAAGYPSWYYGYPYDSWGQGTQVNVSS | low polyreactivity
40 | QVQLVESGVGLVQAGGTLRLSCAASGITFLQYAMGWYRQAPGKERELVAGITRSGGAGTYYADSVKGRFTISRDNAKNTVYLQMNSLKPEDTAVYYCAAETDTPSLYQDMYYWGQGTQVTVSS | high polyreactivity
41 | QVQLVESGGGLVQAGGSIRLSCAASGRTFARNAMGWYRKAPGKERELVAAISSSGGSTYYADSVKGRFTISRDNAKNTVYLQMNSLKPEDTAVYYCARYSSFTYDYWGQGTQVTVSS | high polyreactivity
42 | QVQLVESGGGLVQAGGSLRLSCAASGSTFPRNAMGWYRQAPGKDRELVAAISGSGGTTYYADSVKGRFTISRDNAKNTVYLQMNSLKPEDTAVYYCAARTSWAYPGGNYWGHGTQVTVSS | low polyreactivity
43 | QVQLVESGGGLVQAGGSLRLSCAASGLTFAYYAMGWYRQAPGKETELVAAISWNGARTYYADSVKGRFTISRDNSKNTVYLQMNSLKPEDTAVYYCAAVRSASSWQYIWLKYYYWGQGTQVTVSS | high polyreactivity
